Reference: patent US20250092160A1
Values joined by “and” are separate entries in the source; they are usually repeats but may differ in a detail not shown here. Equal entries are not always repeated.

Columns and labels:
[1] = molecular target: SARS-CoV-2 N439K variant (pseudovirus RVP-703) (SARS-CoV-2) (UniProt P0DTC2); experiment: cell-based or functional assay
[2] = molecular target: SARS-CoV-2 South African Δ3 B.1.351 variant (pseudovirus RVP-724) (SARS-CoV-2) (UniProt P0DTC2); experiment: cell-based or functional assay

REGN10987 (antibody)
EC50 (pM) Neutralization, N439K [1]: 2260 pM and 2220 pM
pseudovirus neutralization, potency against REGN10933 [1]: 1000 fold
EC50 (pM) Neutralization, South Africa B.1.351 [2]: 2.48 pM and 2.37 pM
